Reference: paper PMC3102665, “A Sir2-Like Protein Participates in Mycobacterial NHEJ” (PLoS ONE, 2011)

T1: His-MsmLigD protein (M. smegmatis, UniProt A0R3R7 1-762)
T1 construct: Multifunctional DNA ligase LigD of Mycobacterium smegmatis; The vector pET28a with a BamHI insert would put the His tag at the N-terminus; source: E. coli BL21 (DE3), purified (Ni-NTA)
T1 sequence (looked up): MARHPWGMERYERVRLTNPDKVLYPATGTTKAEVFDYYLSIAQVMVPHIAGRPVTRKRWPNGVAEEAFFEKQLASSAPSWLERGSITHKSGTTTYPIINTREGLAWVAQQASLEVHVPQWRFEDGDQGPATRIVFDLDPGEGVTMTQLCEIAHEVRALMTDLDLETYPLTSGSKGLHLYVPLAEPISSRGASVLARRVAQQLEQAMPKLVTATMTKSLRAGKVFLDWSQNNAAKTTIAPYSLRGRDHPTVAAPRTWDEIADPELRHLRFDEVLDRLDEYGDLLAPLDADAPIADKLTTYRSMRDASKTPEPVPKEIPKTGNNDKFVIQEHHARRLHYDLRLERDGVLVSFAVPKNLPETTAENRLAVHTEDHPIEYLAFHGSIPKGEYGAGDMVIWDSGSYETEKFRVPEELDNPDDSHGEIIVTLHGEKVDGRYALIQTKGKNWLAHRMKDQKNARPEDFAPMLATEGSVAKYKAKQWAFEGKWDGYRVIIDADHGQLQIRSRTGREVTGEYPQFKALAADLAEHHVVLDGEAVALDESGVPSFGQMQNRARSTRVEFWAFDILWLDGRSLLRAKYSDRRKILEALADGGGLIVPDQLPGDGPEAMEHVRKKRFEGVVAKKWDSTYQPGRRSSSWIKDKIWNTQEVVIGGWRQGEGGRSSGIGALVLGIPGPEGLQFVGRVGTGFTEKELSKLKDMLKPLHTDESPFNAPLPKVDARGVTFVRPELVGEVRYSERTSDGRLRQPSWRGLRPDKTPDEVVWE


Tests used:
His-MsmLigD protein = target: T1, His-MsmLigD protein; assay: pull-down; GST fusion held on glutathione-Sepharose 4B beads, incubated with purified His-tagged protein at 4°C for 8 h in 50 mM Tris-HCl pH 7.5, 200 mM NaCl, 10% glycerol; washes with 0.1% Nonidet P-40; Western blot with anti-His-tag antibody; conditions: both partners purified
His-MtuLigD protein = target: T2, His-MtuLigD protein (M. tuberculosis, UniProt P9WNV3 1-759); assay: pull-down; conditions: both partners purified
T2 construct: The vector pET28a with a BamHI insert would put the His tag at the N-terminus
T2 sequence (P9WNV3 whole entry): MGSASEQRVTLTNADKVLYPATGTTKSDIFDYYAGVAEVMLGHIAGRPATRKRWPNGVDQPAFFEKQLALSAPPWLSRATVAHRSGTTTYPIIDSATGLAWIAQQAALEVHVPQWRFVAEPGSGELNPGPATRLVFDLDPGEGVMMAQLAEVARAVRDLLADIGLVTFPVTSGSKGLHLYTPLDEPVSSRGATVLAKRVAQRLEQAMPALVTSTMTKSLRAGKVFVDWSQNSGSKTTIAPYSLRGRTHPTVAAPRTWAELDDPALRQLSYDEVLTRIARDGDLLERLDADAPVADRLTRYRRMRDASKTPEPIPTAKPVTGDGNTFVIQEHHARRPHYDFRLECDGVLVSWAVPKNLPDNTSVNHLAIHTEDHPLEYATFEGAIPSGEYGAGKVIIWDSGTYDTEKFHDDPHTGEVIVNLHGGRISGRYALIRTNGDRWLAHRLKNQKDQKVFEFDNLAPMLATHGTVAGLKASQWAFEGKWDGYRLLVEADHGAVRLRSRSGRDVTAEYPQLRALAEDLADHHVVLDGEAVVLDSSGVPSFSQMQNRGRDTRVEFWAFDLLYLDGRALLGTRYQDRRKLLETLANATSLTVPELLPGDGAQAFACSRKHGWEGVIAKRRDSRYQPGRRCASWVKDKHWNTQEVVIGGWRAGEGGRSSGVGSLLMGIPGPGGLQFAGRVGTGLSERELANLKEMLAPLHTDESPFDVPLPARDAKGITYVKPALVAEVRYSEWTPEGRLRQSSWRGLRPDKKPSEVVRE

Binder	binding result (His-MsmLigD protein)	binding result (His-MtuLigD protein)
GST-MsmSir2 fusion protein (enzyme, M. smegmatis, UniProt A0R2N3 1-240, looked up, Sir2 (NAD-dependent deacetylase MSMEG_5175) of Mycobacterium smegmatis; the vector pGEX-6P-1 would put GST at the N-terminus; also called MsmSir2-GST; source: E. coli BL21 (DE3), purified (glutathione-Sepharose 4B)) MQVTVLSGAGISAESGVPTFRDAETGLWAQVDPYEISSTDGWQRNPEKVWAWYLWRHYMMARVAPNEAHRTVAAWEDHLDVRVVTQNIDDLHERAGSTNVYHLHGSLFEFRCDACGSAFEGNLPEMPEPVETIDPPVCPCSGLIRPSVVWFGEPLPDAAWNRSVLAVSSADVVIVVGTSSIVYPAAGLPEAALAAGKPVIEVNPERTPLSDSATVSLRETASEALPTLLQRLPELLNRSA	binds	–
GST-MtuSir2 fusion protein (enzyme, the vector pGEX-6P-1 would put GST at the N-terminus; also called MtuSir2-GST) MRVAVLSGAGISAESGVPTFRDDKNGLWARFDPYELSSTQGWLRNPERVWGWYLWRHYLVANVEPNDGHRAIAAWQDHAEVSVITQNVDDLHERAGSGAVHHLHGSLFEFRCARCGVPYTDALPEMPEPAIEVEPPVCDCGGLIRPDIVWFGEPLPEEPWRSAVEATGSADVMVVVGTSAIVYPAAGLPDLALARGTAVIEVNPEPTPLSGSATISIRESASQALPGLLERLPALLK	–	binds
